# Laboratory results published in patent US20090018070A1 (LABORATOIRES SERONO, published 2009).
# T1: human FSH receptor (human, UniProt P23945 18-695)
# T1 sequence (looked up): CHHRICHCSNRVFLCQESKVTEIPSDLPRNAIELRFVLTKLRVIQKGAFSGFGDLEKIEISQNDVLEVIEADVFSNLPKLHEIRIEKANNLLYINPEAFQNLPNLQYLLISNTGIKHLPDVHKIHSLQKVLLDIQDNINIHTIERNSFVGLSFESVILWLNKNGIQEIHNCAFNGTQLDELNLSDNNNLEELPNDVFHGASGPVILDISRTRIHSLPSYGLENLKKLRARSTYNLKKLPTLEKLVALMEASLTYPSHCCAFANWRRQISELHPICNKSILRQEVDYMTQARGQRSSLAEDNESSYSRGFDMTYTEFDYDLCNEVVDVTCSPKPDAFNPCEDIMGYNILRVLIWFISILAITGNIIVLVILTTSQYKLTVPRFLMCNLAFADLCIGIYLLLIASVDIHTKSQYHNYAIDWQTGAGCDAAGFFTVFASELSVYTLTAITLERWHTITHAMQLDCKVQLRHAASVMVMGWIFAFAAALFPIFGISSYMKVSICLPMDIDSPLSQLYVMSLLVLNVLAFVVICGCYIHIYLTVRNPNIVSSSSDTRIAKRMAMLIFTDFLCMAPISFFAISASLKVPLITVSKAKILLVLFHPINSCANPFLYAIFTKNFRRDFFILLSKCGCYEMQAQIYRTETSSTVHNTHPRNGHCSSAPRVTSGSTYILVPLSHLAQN
# B1: GNRT mutant FSH (Clone 10C, alpha GNRT / beta GM1) (ligand)
# chain 1: not shown
# chain 2: NSCELTNITIAIEKEECRFCISINTTWCAGYCYTRDLVYKDPARPKIQKTCTFKNLTYETVRVPGCAHHADSLYTYPVATQCHCGKCDSDSTDCTVRGLGPSYCSFGEMKE
# B2: GNFT mutant FSH (Clone 11C, alpha GNFT / beta GM1) (ligand)
# chain 1: not shown
# chain 2: NSCELTNITIAIEKEECRFCISINTTWCAGYCYTRDLVYKDPARPKIQKTCTFKNLTYETVRVPGCAHHADSLYTYPVATQCHCGKCDSDSTDCTVRGLGPSYCSFGEMKE
# Molecular target: T1, human FSH receptor
# Experiment: cell-based or functional assay
row,Binder,EC50 of cAMP production in CHO-FSHR cells [pM]
1,B1,258
2,B2,278
